Reference: patent publication US20110263827A1 (AbbVie / Abbott, published 2011)

B1: DVD327 (bispecific antibody)
VH: QVQLQESGPGLVKPSQTLSLTCTVSGYSISSDFAWNWIRQPPGKGLEWMGYISYSGNTRYQPSLKSRITISRDTSKNQFFLKLNSVTAADTATYYCVTAGRGFPYWGQGTLVTVSSASTKGPQVQLQQWGAGLLKPSETLSLTCAVYGGSFSGYYWSWIRQPPGKGLEWIGEINHSGSTNYNPSLKSRVTISVETSKNQFSLKLSSVTAADTAVYYCARDKWTWYFDLWGRGTLVTVSS
VL: DIQMTQSPSSMSVSVGDRVTITCHSSQDINSNIGWLQQKPGKSFKGLIYHGTNLDDGVPSRFSGSGSGTDYTLTISSLQPEDFATYYCVQYAQFPWTFGGGTKLEIKRTVAAPDIEMTQSPDSLAVSLGERATINCRSSQSVLYSSSNRNYLAWYQQNPGQPPKLLIYWASTRESGVPDRFSGSGSGTDFTLTISSLQAEDVAVYYCQQYYSTPRTFGQGTKVEIKR
notes: DVD-Ig; HC S, LC S; variable parts only
B2: DVD329 (bispecific antibody)
VH: QVQLQESGPGLVKPSQTLSLTCTVSGYSISSDFAWNWIRQPPGKGLEWMGYISYSGNTRYQPSLKSRITISRDTSKNQFFLKLNSVTAADTATYYCVTAGRGFPYWGQGTLVTVSSASTKGPEVQLVESGGGLVQPGGSLRLSCAASGFTFSIYSMNWVRQAPGKGLEWVSYISSSSSTIYYADSVKGRFTISRDNAKNSLYLQMNSLRDEDTAVYYCARDRGDFDAFDIWGQGTMVTVSS
VL: DIQMTQSPSSMSVSVGDRVTITCHSSQDINSNIGWLQQKPGKSFKGLIYHGTNLDDGVPSRFSGSGSGTDYTLTISSLQPEDFATYYCVQYAQFPWTFGGGTKLEIKRTVAAPDIQMTQSPSSLSASVGDRVTITCQASQDITNYLNWYQQKPGKAPKLLIYDASNLETGVPSRFSGSGSGTDFTFTISSLQPEDIATYNCQQCENFPITFGQGTRLEIKR
notes: as for B1
B3: DVD787 (bispecific antibody)
VH: QVQLQESGPGLVKPSQTLSLTCTVSGYSISSDFAWNWIRQPPGKGLEWMGYISYSGNTRYQPSLKSRITISRDTSKNQFFLKLNSVTAADTATYYCVTAGRGFPYWGQGTLVTVSSASTKGPSVFPLAPEVQLLESGGGLVQPGGSLRLSCAASGFTFSHYVMAWVRQAPGKGLEWVSSISSSGGWTLYADSVKGRFTISRDNSKNTLYLQMNSLRAEDTAVYYCTRGLKMATIFDYWGQGTLVTVSS
VL: DIQMTQSPSSMSVSVGDRVTITCHSSQDINSNIGWLQQKPGKSFKGLIYHGTNLDDGVPSRFSGSGSGTDYTLTISSLQPEDFATYYCVQYAQFPWTFGGGTKLEIKRTVAAPSVFIFPPQSALTQPASVSGSPGQSITISCTGTSSDVGSYNVVSWYQQHPGKAPKLIIYEVSQRPSGVSNRFSGSKSGNTASLTISGLQTEDEADYYCCSYAGSSIFVIFGGGTKVTVLG
notes: DVD-Ig; HC L, LC L; variable parts only
B4: DVD817 (bispecific antibody)
VH: B3 VH
VL: DIQMTQSPSSMSVSVGDRVTITCHSSQDINSNIGWLQQKPGKSFKGLIYHGTNLDDGVPSRFSGSGSGTDYTLTISSLQPEDFATYYCVQYAQFPWTFGGGTKLEIKRTVAAPQSALTQPASVSGSPGQSITISCTGTSSDVGSYNVVSWYQQHPGKAPKLIIYEVSQRPSGVSNRFSGSKSGNTASLTISGLQTEDEADYYCCSYAGSSIFVIFGGGTKVTVLG
notes: DVD-Ig; HC L, LC S; variable parts only
B5: DVD847 (bispecific antibody)
VH: QVQLQESGPGLVKPSQTLSLTCTVSGYSISSDFAWNWIRQPPGKGLEWMGYISYSGNTRYQPSLKSRITISRDTSKNQFFLKLNSVTAADTATYYCVTAGRGFPYWGQGTLVTVSSASTKGPEVQLLESGGGLVQPGGSLRLSCAASGFTFSHYVMAWVRQAPGKGLEWVSSISSSGGWTLYADSVKGRFTISRDNSKNTLYLQMNSLRAEDTAVYYCTRGLKMATIFDYWGQGTLVTVSS
VL: B3 VL
notes: DVD-Ig; HC S, LC L; variable parts only
B6: DVD771 (bispecific antibody)
VH: QVQLQESGPGLVKPSQTLSLTCTVSGYSISSDFAWNWIRQPPGKGLEWMGYISYSGNTRYQPSLKSRITISRDTSKNQFFLKLNSVTAADTATYYCVTAGRGFPYWGQGTLVTVSSASTKGPSVFPLAPEVQLVESGGGLVQPGGSLRLSCAASGFTFSIYSMNWVRQAPGKGLEWVSYISSSSSTIYYADSVKGRFTISRDNAKNSLYLQMNSLRDEDTAVYYCARDRGDFDAFDIWGQGTMVTVSS
VL: DIQMTQSPSSMSVSVGDRVTITCHSSQDINSNIGWLQQKPGKSFKGLIYHGTNLDDGVPSRFSGSGSGTDYTLTISSLQPEDFATYYCVQYAQFPWTFGGGTKLEIKRTVAAPSVFIFPPDIQMTQSPSSLSASVGDRVTITCQASQDITNYLNWYQQKPGKAPKLLIYDASNLETGVPSRFSGSGSGTDFTFTISSLQPEDIATYNCQQCENFPITFGQGTRLEIKR
notes: as for B3
B7: DVD801 (bispecific antibody)
VH: B6 VH
VL: B2 VL
notes: as for B4
B8: DVD831 (bispecific antibody)
VH: B2 VH
VL: B6 VL
notes: as for B5
B9: DVD755 (bispecific antibody)
VH: B5 VH
VL: B4 VL
notes: as for B1
B10: DVD769 (bispecific antibody)
VH: QVQLQESGPGLVKPSQTLSLTCTVSGYSISSDFAWNWIRQPPGKGLEWMGYISYSGNTRYQPSLKSRITISRDTSKNQFFLKLNSVTAADTATYYCVTAGRGFPYWGQGTLVTVSSASTKGPSVFPLAPQVQLQQWGAGLLKPSETLSLTCAVYGGSFSGYYWSWIRQPPGKGLEWIGEINHSGSTNYNPSLKSRVTISVETSKNQFSLKLSSVTAADTAVYYCARDKWTWYFDLWGRGTLVTVSS
VL: DIQMTQSPSSMSVSVGDRVTITCHSSQDINSNIGWLQQKPGKSFKGLIYHGTNLDDGVPSRFSGSGSGTDYTLTISSLQPEDFATYYCVQYAQFPWTFGGGTKLEIKRTVAAPSVFIFPPDIEMTQSPDSLAVSLGERATINCRSSQSVLYSSSNRNYLAWYQQNPGQPPKLLIYWASTRESGVPDRFSGSGSGTDFTLTISSLQAEDVAVYYCQQYYSTPRTFGQGTKVEIKR
notes: as for B3
B11: DVD799 (bispecific antibody)
VH: B10 VH
VL: B1 VL
notes: as for B4
B12: DVD829 (bispecific antibody)
VH: B1 VH
VL: B10 VL
notes: as for B5

Target: T1, EGFR (UniProt P00533 25-645, limits assumed, biotinylated)
T1 construct: ELISA antigen; construct not described
Experiment: direct bind ELISA, N-term VD;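 also: antibody or DVD-Ig preparations bound to immobilized target antigen on ELISA plates, 1 h at room temperature, TMB detection read as absorbance at 450 nm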

Binder | EC50
B1 | 3.98 nM
B2 | 3.82 nM
B3 | 3.78 nM
B4 | 5.33 nM
B5 | 2.92 nM
B6 | 4.43 nM
B7 | 3.91 nM
B8 | 4.6 nM
B9 | 3.26 nM
B10 | 3.59 nM
B11 | 5.76 nM
B12 | 3.81 nM

Target: T2, ErbB3 (UniProt P21860 20-643, limits assumed, biotinylated)
T2 construct: ELISA antigen
Experiment: direct bind ELISA, C-term VD;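 also: ELISA with antibody or DVD-Ig preparations applied to target antigen-coated plates for 1 h at room temperature, TMB colour development, absorbance read at 450 nm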

Binder | EC50
B1 | 485 nM
B2 | 481 nM
B3 | 14.4 nM
B4 | 18.8 nM
B5 | 12.9 nM
B6 | 1.38 nM
B7 | 3.28 nM
B8 | 1.42 nM
B9 | 27.7 nM
B10 | 8.23 nM
B11 | 20 nM
B12 | 41.4 nM
